The source of these data is the supplement of paper PMC10724198.

For the data set, the system named is Saccharomyces cerevisiae. Kind of data set: protein stability index of tFT-peptide fusion (C-terminal peptide) (PSI (0-1 scale)); higher = more stable (slower turnover). Particulars: temperature: 30 C. The protocol:
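MPS profiling in S. cerevisiae of the yeast C-terminome library: the last 12 aa of each annotated ORF are fused to the C-terminus of a sfGFP-mCherry timer, after a GGGS linker. Cells are FACS-sorted into 8 mCherry/sfGFP bins and deep-sequenced. PSI runs from 0 (unstable) to 1 (stable); wild type and das1Δ backgrounds, two technical replicates each.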

Where [1] appears, read: genetic background: das1 deletion.

± gives the standard deviation of the averaged measurements.

For IEQEAKQRERNQ [COA6 C-terminal 12 aa], the protein stability index by setting is: under setting [1], 0.6993 ± 0.0011; (genetic background: wild type) 0.701 ± 0.02.
Sequence IFCFDNYRSCYC [YKL031W C-terminal 12 aa] had a protein stability index under setting [1] of 0.7071 ± 0.0034 and a protein stability index (genetic background: wild type) of 0.678 ± 0.038.
On to IFKSLIAKKVQS [BPL1 C-terminal 12 aa], for which the protein stability index stood at 0.69 ± 0.001 under setting [1] and 0.433 ± 0.033 (genetic background: wild type).
Consider IFLMKKAYDLQI [EFM1 C-terminal 12 aa], for which the protein stability index was 0.675 ± 0.011 under setting [1] and 0.657 ± 0.02 (genetic background: wild type).
For “IGIGTHDLHFGS [YHR052W-A C-terminal 12 aa]”, the protein stability index was determined as 0.728 ± 0.033 under setting [1] and 0.7123 ± 0.0016 (genetic background: wild type).
IGKQKCFIIEMR [MSY1 C-terminal 12 aa]: the protein stability index amounted to 0.6688 ± 0.00094 under setting [1] and 0.679 ± 0.0098 (genetic background: wild type).
Taken in the same sequence, the figures for IHFGETSNYSFD [SMC5 C-terminal 12 aa] were 0.722 ± 0.02 and 0.698 ± 0.017.
Taken in the same sequence, the figures for IHNDIPSHRKLK [FIR1 C-terminal 12 aa] were 0.699 ± 0.022 and 0.6589 ± 0.0014.
As for IHRVIKNATPVA [PEX28 C-terminal 12 aa], the protein stability index is, setting by setting: under setting [1], 0.624 ± 0.027; (genetic background: wild type) 0.649 ± 0.026.
On to IHSGYTNISYTI [MCM16 C-terminal 12 aa], for which the protein stability index by setting is: under setting [1], 0.709 ± 0.0077; (genetic background: wild type) 0.7012 ± 0.0067.
On to IHYKMNENSTNQ [SYO1 C-terminal 12 aa], for which the protein stability index runs as follows: under setting [1], 0.689 ± 0.0075; (genetic background: wild type) 0.68 ± 0.04.
For the sequence IIEEKVRNYLNK [RIB5 C-terminal 12 aa], the protein stability index amounted to 0.696 ± 0.061 under setting [1] and 0.685 ± 0.01 (genetic background: wild type).
In the case of IKDAIKNGTGLL [MET31 C-terminal 12 aa], the protein stability index was determined as 0.677 ± 0.0075 under setting [1] and 0.678 ± 0.014 (genetic background: wild type).
Taken in the same sequence, the figures for IKKEVSRRLNGR [CUR1 C-terminal 12 aa] were 0.647 ± 0.016 and 0.692 ± 0.03.
With IKNSSLAVLHST [YKL162C C-terminal 12 aa], the protein stability index worked out at 0.705 ± 0.021 under setting [1] and 0.205 ± 0.019 (genetic background: wild type).
Taken in the same sequence, the figures for IKTIVEAMDVLS [PCC1 C-terminal 12 aa] were 0.67028 ± 4.3e-05 and 0.656 ± 0.025.
For ILELPHVVSDLF [SDT1 C-terminal 12 aa], the protein stability index stood at 0.713 ± 0.0089 under setting [1] and 0.7147 ± 0.0022 (genetic background: wild type).
For the sequence IMALIAESGDDF [ERV14 C-terminal 12 aa], the protein stability index came out at 0.673 ± 0.021 under setting [1] and 0.7007 ± 0.0027 (genetic background: wild type).
Take INDNNENASNSV [GLD1 C-terminal 12 aa]: the protein stability index came out at 0.6943 ± 0.0069 under setting [1] and 0.676 ± 0.024 (genetic background: wild type).
On to INRRQTPLQSNA [CDC39 C-terminal 12 aa], for which the protein stability index by setting is: under setting [1], 0.7 ± 0.011; (genetic background: wild type) 0.666 ± 0.011.
Turning to IQINKGDNIFKN [YTM1 C-terminal 12 aa], the protein stability index by setting is: under setting [1], 0.688 ± 0.026; (genetic background: wild type) 0.732 ± 0.025.
As for IRIVITINKVTL [IRC9 C-terminal 12 aa], the protein stability index by setting is: under setting [1], 0.348 ± 0.0076; (genetic background: wild type) 0.36577 ± 0.00023.
For the sequence IRKPDDKFSSFI [YOR072W C-terminal 12 aa], the protein stability index turned out to be 0.702 ± 0.0082 under setting [1] and 0.706 ± 0.032 (genetic background: wild type).
For the sequence IRMYLGSSLDIE [SRX1 C-terminal 12 aa], the protein stability index is, setting by setting: under setting [1], 0.69 ± 0.013; (genetic background: wild type) 0.6815 ± 0.0061.
Taken in the same sequence, the figures for ISICILDLASHL [YBL071C C-terminal 12 aa] were 0.6703 ± 0.0038 and 0.669 ± 0.018.
ISLWYKHNRVKG [YPR077C C-terminal 12 aa] displayed a protein stability index under setting [1] of 0.677 ± 0.017 and a protein stability index (genetic background: wild type) of 0.5619 ± 0.0045.
ISSGPPPRSPNK [IGO2 C-terminal 12 aa]: the protein stability index stood at 0.68 ± 0.01 under setting [1] and 0.6422 ± 0.0036 (genetic background: wild type).
Turning to ISTAPEQMMFLP [MSG5 C-terminal 12 aa], the protein stability index came to 0.7169 ± 0.0058 under setting [1] and 0.7155 ± 0.0068 (genetic background: wild type).
Taken in the same sequence, the figures for ISVSKKTLKSNW [HOP1 C-terminal 12 aa] were 0.698 ± 0.011 and 0.686 ± 0.022.
For the sequence “IVKIIRFNHASV [YHL048C-A C-terminal 12 aa]”, the protein stability index was determined as 0.685 ± 0.016 under setting [1] and 0.658 ± 0.034 (genetic background: wild type).
On to IVNDVWLPFQKW [DSD1 C-terminal 12 aa], for which the protein stability index runs as follows: under setting [1], 0.729 ± 0.03; (genetic background: wild type) 0.701 ± 0.02.
Turning to IWKKVPETKRSG [VPS73 C-terminal 12 aa], the protein stability index runs as follows: under setting [1], 0.707 ± 0.019; (genetic background: wild type) 0.669 ± 0.022.
IYSVTKKRNTRI [RSF2 C-terminal 12 aa]: the protein stability index reads like this: under setting [1], 0.725 ± 0.026; (genetic background: wild type) 0.693 ± 0.092.
With IYYKSQNWRREC [YBR219C C-terminal 12 aa], the protein stability index stood at 0.707 ± 0.045 under setting [1] and 0.169 ± 0.0069 (genetic background: wild type).
For the sequence KAEASEAAHDEL [CPR5 C-terminal 12 aa], the protein stability index is, setting by setting: under setting [1], 0.695 ± 0.0055; (genetic background: wild type) 0.676 ± 0.038.
For the sequence KAGREELERVNV [QCR8 C-terminal 12 aa], the protein stability index under setting [1] is 0.688 ± 0.026 and the protein stability index (genetic background: wild type) stood at 0.685 ± 0.015.
On to KAINFDEDVLNL [VID30 C-terminal 12 aa], for which the protein stability index reads like this: under setting [1], 0.66 ± 0.017; (genetic background: wild type) 0.748 ± 0.02.
In turn, KALQKAMGSVQF [YEL1 C-terminal 12 aa] registered a protein stability index under setting [1] of 0.702 ± 0.018 and a protein stability index (genetic background: wild type) of 0.687 ± 0.03.
The sequence KARIVVAKSGEL [CPR1 C-terminal 12 aa] yielded a protein stability index under setting [1] of 0.686 ± 0.018 and a protein stability index (genetic background: wild type) of 0.645 ± 0.015.
For the sequence KCLDLLKTELGE [POC4 C-terminal 12 aa], the protein stability index reads like this: under setting [1], 0.699 ± 0.018; (genetic background: wild type) 0.6935 ± 0.0043.
In the case of KDSAQSLDDLLM [SFM1 C-terminal 12 aa], the protein stability index reads like this: under setting [1], 0.7007 ± 0.0043; (genetic background: wild type) 0.6969 ± 0.0046.
For KDSKEYFKNANN [TSA2 C-terminal 12 aa], the protein stability index is, setting by setting: under setting [1], 0.714 ± 0.022; (genetic background: wild type) 0.716 ± 0.02.
In turn, KEFKQFEFHNRR [RRP36 C-terminal 12 aa] registered a protein stability index under setting [1] of 0.729 ± 0.011 and a protein stability index (genetic background: wild type) of 0.681 ± 0.011.
With KERSHHFVRNMN [YKL102C C-terminal 12 aa], the protein stability index reads like this: under setting [1], 0.707 ± 0.0071; (genetic background: wild type) 0.637 ± 0.048.
KERTHLFQLIRK [EFM6 C-terminal 12 aa]: the protein stability index under setting [1] worked out at 0.699 ± 0.0076 and the protein stability index (genetic background: wild type) was found to be 0.6923 ± 0.0018.
Taken in the same sequence, the figures for KEVPLDFDPDRN [ANP1 C-terminal 12 aa] were 0.683 ± 0.037 and 0.688 ± 0.022.
With KEWKEKEKTGKQ [MPC1 C-terminal 12 aa], the protein stability index by setting is: under setting [1], 0.728 ± 0.012; (genetic background: wild type) 0.702 ± 0.022.
As to KFDKPLYERLET [YNR014W C-terminal 12 aa], the protein stability index reads like this: under setting [1], 0.6855 ± 0.0028; (genetic background: wild type) 0.651 ± 0.044.
For KFQDVLDNFLQG [ETT1 C-terminal 12 aa], the protein stability index under setting [1] was 0.713 ± 0.019 and the protein stability index (genetic background: wild type) came to 0.685 ± 0.01.
Take KFSSTSRYMQYN [RPT1 C-terminal 12 aa]: the protein stability index runs as follows: under setting [1], 0.705 ± 0.016; (genetic background: wild type) 0.642 ± 0.017.
Consider KGATIKEIVLND [ATH1 C-terminal 12 aa], for which the protein stability index under setting [1] came out at 0.69826 ± 0.00054 and the protein stability index (genetic background: wild type) came out at 0.672 ± 0.012.
With KGGRLSSKPIIM [SPT3 C-terminal 12 aa], the protein stability index is, setting by setting: under setting [1], 0.683 ± 0.019; (genetic background: wild type) 0.686 ± 0.034.
As to KGVFWDPACVIA [MFA1 C-terminal 12 aa], the protein stability index was 0.731 ± 0.0082 under setting [1] and 0.713 ± 0.031 (genetic background: wild type).
With KHCPYVFIPYVF [ERG4 C-terminal 12 aa], the protein stability index reads like this: under setting [1], 0.5262 ± 0.00096; (genetic background: wild type) 0.273 ± 0.0033.
For KHGLNDWIVGQK [YPL225W C-terminal 12 aa], the protein stability index is 0.712 ± 0.021 under setting [1] and 0.745 ± 0.035 (genetic background: wild type).
Sequence KHKNILFFNHNT [YJR162C C-terminal 12 aa] came in with a protein stability index under setting [1] of 0.725 ± 0.015 and a protein stability index (genetic background: wild type) of 0.199 ± 0.0036.
Taken in the same sequence, the figures for “KHKNILSFNDNT [YER188C-A C-terminal 12 aa]” were 0.731 ± 0.015 and 0.747 ± 0.068.
Taken in the same sequence, the figures for KHKQYFWKRPTK [PLM2 C-terminal 12 aa] were 0.714 ± 0.015 and 0.692 ± 0.019.
Consider KHVGKGCGYSYH [STP4 C-terminal 12 aa], for which the protein stability index by setting is: under setting [1], 0.696 ± 0.024; (genetic background: wild type) 0.6985 ± 0.0052.
As to KILDEINLDRIK [HEM3 C-terminal 12 aa], the protein stability index by setting is: under setting [1], 0.689 ± 0.0094; (genetic background: wild type) 0.681 ± 0.052.
As for KILTQHLQDLQS [RKM2 C-terminal 12 aa], the protein stability index was 0.6934 ± 0.0063 under setting [1] and 0.714 ± 0.077 (genetic background: wild type).
Regarding KIQWDIDPQLDG [SSY5 C-terminal 12 aa], the protein stability index was 0.743 ± 0.033 under setting [1] and 0.723 ± 0.082 (genetic background: wild type).
With KIVSGLVRTNSS [YIL060W C-terminal 12 aa], the protein stability index under setting [1] was 0.703 ± 0.019 and the protein stability index (genetic background: wild type) amounted to 0.717 ± 0.024.
On to KKARKMPTWVKR [MRPS9 C-terminal 12 aa], for which the protein stability index turned out to be 0.693 ± 0.032 under setting [1] and 0.65752 ± 7.3e-05 (genetic background: wild type).
KKKLVKKTKSKK [RIO1 C-terminal 12 aa]: the protein stability index is, setting by setting: under setting [1], 0.739 ± 0.01; (genetic background: wild type) 0.705 ± 0.081.
For the sequence KKKQNDGKSLRS [DBP8 C-terminal 12 aa], the protein stability index was found to be 0.687 ± 0.013 under setting [1] and 0.732 ± 0.0081 (genetic background: wild type).
Take KLAKPAPTSKLD [TDA4 C-terminal 12 aa]: the protein stability index came out at 0.6901 ± 0.0021 under setting [1] and 0.692 ± 0.025 (genetic background: wild type).
